In patent US20240309103A1:
Values belong to the binder of their own block, whether it stands above or below them.

Tests used:
[1] = target: mNPR1-mFc:hBNP complex (mouse; human) (UniProt P16860); test: SPR Biacore, mAb captured by anti-human Fc, 37C
[2] = target: mNPR1-mFc:hANP complex (mouse; human) (UniProt P01160); test: SPR Biacore, mAb captured by anti-human Fc, 37C
[3] = target: mNPR1-mFc:hBNP complex (mouse; human) (UniProt P16860); test: SPR Biacore, mAb captured by anti-human Fc, 25C
[4] = target: mNPR1-mFc:hANP complex (mouse; human) (UniProt P01160); test: SPR Biacore, mAb captured by anti-human Fc, 25C
[5] = target: mNPR1-mFc:hBNP complex (mouse; human) (UniProt P16860); test: SPR Biacore, mAb captured by anti-human Fc, 37C; kinetics IC* (inconclusive)
[6] = target: mNPR1-mFc:hANP complex (mouse; human) (UniProt P01160); test: as above
[7] = target: human NPR1 on HEK293/hNPR1.myc.DDK cells (0 hANP) (human) (UniProt P16066); test: ECL cell binding (MSD), 0 hANP
human NPR1 on HEK293/hNPR1.myc.DDK cells (0 hANP) (human), sequence (P16066 33-1061): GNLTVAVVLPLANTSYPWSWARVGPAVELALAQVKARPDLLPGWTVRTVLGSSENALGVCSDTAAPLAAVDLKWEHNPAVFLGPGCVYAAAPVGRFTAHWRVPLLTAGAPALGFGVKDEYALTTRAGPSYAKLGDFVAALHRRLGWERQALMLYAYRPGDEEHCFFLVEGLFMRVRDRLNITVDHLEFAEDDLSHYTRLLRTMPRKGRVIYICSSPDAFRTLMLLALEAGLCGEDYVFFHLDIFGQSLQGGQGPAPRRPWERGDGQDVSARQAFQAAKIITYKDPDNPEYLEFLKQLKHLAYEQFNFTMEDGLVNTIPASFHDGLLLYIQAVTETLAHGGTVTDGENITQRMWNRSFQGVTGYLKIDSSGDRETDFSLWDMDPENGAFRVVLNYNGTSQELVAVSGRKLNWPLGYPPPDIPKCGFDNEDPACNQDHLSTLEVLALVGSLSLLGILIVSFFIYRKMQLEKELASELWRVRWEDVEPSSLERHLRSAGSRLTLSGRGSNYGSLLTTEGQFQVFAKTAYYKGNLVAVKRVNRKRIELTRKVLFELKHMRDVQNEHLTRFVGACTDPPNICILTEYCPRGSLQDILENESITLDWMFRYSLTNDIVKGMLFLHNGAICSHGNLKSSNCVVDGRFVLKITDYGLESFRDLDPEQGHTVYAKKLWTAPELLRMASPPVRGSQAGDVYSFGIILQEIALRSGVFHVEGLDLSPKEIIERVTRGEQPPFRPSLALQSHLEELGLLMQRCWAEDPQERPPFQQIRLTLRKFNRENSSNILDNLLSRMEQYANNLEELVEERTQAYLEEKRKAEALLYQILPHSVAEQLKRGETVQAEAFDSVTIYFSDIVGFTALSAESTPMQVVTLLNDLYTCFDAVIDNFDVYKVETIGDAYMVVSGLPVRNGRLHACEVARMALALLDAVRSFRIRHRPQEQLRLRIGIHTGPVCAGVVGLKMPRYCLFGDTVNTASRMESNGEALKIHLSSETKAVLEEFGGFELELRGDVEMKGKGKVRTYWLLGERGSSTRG

[8] = target: human NPR1 on HEK293/hNPR1.myc.DDK cells (0 hANP) (human) (UniProt P16066); test: cell-based or functional assay
[9] = target: human NPR1 on HEK293/hNPR1.myc.DDK cells (no hANP added) (human) (UniProt P16066); test: cell-based or functional assay
human NPR1 on HEK293/hNPR1.myc.DDK cells (no hANP added) (human), sequence (P16066 33-1061): as above

- 100 nM Ag Bound (RU) [1]: 1 RU
- 100 nM Ag Bound (RU) [2]: 0 RU
- 100 nM Ag Bound (RU) [3]: 1 RU
- 100 nM Ag Bound (RU) [4]: 0 RU
B1: mAb25508 (antibody, human IgG4, V domains shown)
VH: EVQLVESGGGVVRPGGSLRLSCAASGFNVDDYGMSWVRQIPGKGLEWISGINWNGGRIYYADSMKGRITISRDNAKNSLYLQMNSLRAEDTALYHCVRDQWLVRGLDYWGQGTLVTVSS
VL: DIQMTQSPSSLSASVGDRVTITCRASQGIYNYLAWFQQKPGKAPKSLIYAASSLQSGVPSKFSGSGSGTDFTLTISSLQPEDFATYYCQQYNTYPYTFGQGTKLEIK

- 100 nM Ag Bound (RU) [1]: 4 RU
- 100 nM Ag Bound (RU) [2]: 1 RU
- 100 nM Ag Bound (RU) [3]: 5 RU
- 100 nM Ag Bound (RU) [4]: 1 RU
B2: mAb25491 (antibody, human IgG4, V domains shown)
VH: QVQLVQSGAEVMKPGASVKVSCKASGYTFTGYYIHWVRQAPGQGLEWMGWITPNSGATNYAQKFQGRVTLTRDTSISTAYMELTRLKSDDTAVYYCARGGQLEFFYYYYGMDVWGQGTTVTVSS
VL: DIQMTQSPSSLSASAGDRVTITCRASQSIDSYLNWYQQKPGKAPKLLISATSGFQSGVPSRFSGSGSGTDFTLTISSLQPEDFGTYYCQQSYTTPITFGQGTRLEIK

- 100 nM Ag Bound (RU) [1]: 4 RU
- 100 nM Ag Bound (RU) [2]: 2 RU
- 100 nM Ag Bound (RU) [3]: 5 RU
- 100 nM Ag Bound (RU) [4]: 1 RU
B3: mAb22033 (antibody, human IgG4, V domains shown)
VH: QVQLVQSGAEVKKPGASVTVSCKASGYTFTDYYMHWVRQAPGQGLEWMGWIKPNSGGTNSAQRFQGRITMTWDTSISTAYMELSRLRSDDTAVYYCSRGGPVMNYYYYYGMDVWGQGTTVTVSS
VL: NIQMTQSPSSLSASVGDRVTITCRASQSIDSYLNWYQQKPGKAPKLLIYVASSLQSGVPSRFSGSGSGKDFTLTISSLQPEDFATYYCQQSYSIPTFGQGTRLEIK

- 100 nM Ag Bound (RU) [1]: 1 RU
- 100 nM Ag Bound (RU) [2]: 1 RU
- 100 nM Ag Bound (RU) [3]: 0 RU
- 100 nM Ag Bound (RU) [4]: 0 RU
B4: mAb22035 (antibody, human IgG4, V domains shown)
VH: EVQLVESGGGLVQPGRSLRLSCAASGFTFDDYAMHWVRQAPGKGLEWVSGISWNSGTIGYADSVKGRFTMSRDNAKNSLYLQMNSLRPEDTALYYCAKDMGVSLALWGAFDIWGQGTMVTVSS
VL: DIQMTQSPSSLSASVGDKVTITCRASQNIRTYLNWYQQKPGKAPKVLISTASSLQSGVPSRFSGSGSGTDFTLTISSLQPEDFAVFYCQQSFGIPRTFGQGTKVEIK

- 100 nM Ag Bound (RU) [5]: 17 RU
- 100 nM Ag Bound (RU) [6]: 15 RU
- 100 nM Ag Bound (RU) [3]: 21 RU
- Kd [3]: 445 nM
- koff [3]: 0.0682 s⁻¹
- kon [3]: 153000 M⁻¹ s⁻¹
- t½ [3]: 10.2 s
- 100 nM Ag Bound (RU) [4]: 18 RU
- Kd [4]: 424 nM
- koff [4]: 0.0839 s⁻¹
- kon [4]: 198000 M⁻¹ s⁻¹
- t½ [4]: 8.4 s
B5: mAb22805 (antibody, human IgG4, V domains shown)
VH: QVQLVESGGGVVQPGRSLRLSCAASGFTFSTYGMHWVRQAPGKGLEWVALIWNDGSNKYYADSVKGRFTISRDNSKNTLDLQMNSLRAEDTAVYYCARLNTRITGTTNLDYWGQGTLVTVSS
VL: DIQMTQSPSSLSASVGDRVTVSCRASQSIANYLNWYQQKPGKAPNLLIYGAYTLQSGVPSRFRGSGSGTDFTLTISSLQPEDFATYYCQQTYSTPPITFGQGTRLEIK

- 100 nM Ag Bound (RU) [1]: 1 RU
- 100 nM Ag Bound (RU) [2]: 1 RU
- 100 nM Ag Bound (RU) [3]: 1 RU
- 100 nM Ag Bound (RU) [4]: 0 RU
B6: mAb22809 (antibody, human IgG4, V domains shown)
VH: QLQLRESGPGLVKPSETLSLTCTVSGGSINDNSFFWDWIRQTPGRGLEWIGNIFFDGNTYYTPSLKSRVIISVDMSQNQFSLRLTSVTAADTALYYCARHKRSMTAWGFFDYWGQGTLVTVSS
VL: DIQMTQSPSSLSASVGDRVTITCRASKRINTYLNWYQQKPGKAPKVLIYSASNLQSGVPSRFSGSGSGTDFTLTINSLQPEDFATYFCQQSFSAPPITFGQGTRLEIK

- 100 nM Ag Bound (RU) [1]: 2 RU
- 100 nM Ag Bound (RU) [2]: 1 RU
- 100 nM Ag Bound (RU) [3]: 2 RU
- 100 nM Ag Bound (RU) [4]: 1 RU
B7: mAb25497 (antibody, human IgG4, V domains shown)
VH: QVQLVQSGAEVKEPGASVKVSCKASGYTFTDYYIHWVRQAPGQGLEWMGWINLNSGGKNHAQKFQGRVTVTSDTSINTAYIELGRLRGDDTAVYYCSRGGGSHYYYYYHGMDVWGQGTTVTVSS
VL: DIQMTQSPSSLSASVGDRITITCRASHSIDSYLNWYQQKPGKAPKLLIYPASTLQSGVPSRFSGSGSGTDFTLTISSLQPEDSAIYYCQQSYSTPLTFGGGTKVEIK

- Ratio at 3.7 nM Ab concentration of Cell Binding Signal (RLU) to HEK293/hNPR1.myc.DKK relative to parental HEK293 [7]: 1
- 100 nM Ag Bound (RU) [1]: 34 RU
- Kd [1]: 342 nM
- koff [1]: 0.0998 s⁻¹
- kon [1]: 291000 M⁻¹ s⁻¹
- t½ [1]: 7.2 s
- 100 nM Ag Bound (RU) [2]: 35 RU
- Kd [2]: 334 nM
- koff [2]: 0.0883 s⁻¹
- kon [2]: 264000 M⁻¹ s⁻¹
- t½ [2]: 7.8 s
- % Activation (vs ANP max), Expt 1 [8]: 92.9%
- % Activation (vs. ANP max), Expt II [8]: 110%
- EC50 (nM), calcium flux, Expt 1 [8]: 161 nM
- EC50 (nM), calcium flux, Expt II [8]: > 200 nM
- EC50 of Ca2+ flux activation, Expt II [9]: > 200 nM
- 100 nM Ag Bound (RU) [3]: 25 RU
- Kd [3]: 215 nM
- koff [3]: 0.0503 s⁻¹
- kon [3]: 234000 M⁻¹ s⁻¹
- t½ [3]: 13.8 s
- 100 nM Ag Bound (RU) [4]: 25 RU
- Kd [4]: 337 nM
- koff [4]: 0.0799 s⁻¹
- kon [4]: 237000 M⁻¹ s⁻¹
- t½ [4]: 8.4 s
B8: mAb25502 (antibody, human IgG4, V domains shown)
VH: QLQLQESGPGLVKPSETLSLTCTVSGGSISSSSYYWGWIRQPPGKGLEWIGSIYYSGSPYYIPSLKSRVTISVDTSKNQFSLKLSSVTAADTAMYYCARQGRGIARAGPFDYWGQGTLVTVSS
VL: DIQMTQSPSSLSASVGDRVTITCRASQGISNYLAWYQEKPGKVPKLLIYAASTLQSGVPSRFSGSGSGTDFTLTITSLQSEDVATYYCQKYNSAPPWTFGQGTKVEIK
